Measured values as given in patent US6673357B2, “Alkaloid glycoside for use as a medicament” (University of Southampton, priority 1996, dated 2004).

System: ovalbumin-transfected EL4 (C57BL/6, H-2b thymoma) monoclonal murine cell line
Assay: Cytotoxicity assay: T lymphocyte-mediated 51Cr release with spleen cells from immunised mice
Format: cell-based
Conditions: means of triplicate determinations
Experimental: Cytotoxic activity mediated by T lymphocytes was measured using the ovalbumin-transfected EL4 (C57BL/6, H-2b thymoma) monoclonal murine cell line as a target. Untransfected EL4 cells were used as negative controls. Spleen cells (3×10^7) from normal or immunised mice primed 14 days earlier were incubated with 1.5×10^6 irradiated (200 Gy) 15-12 cells (gp160 transfectants) or 3T3 cells (which served as controls) for 5 days. Target cells (1×10^6) were labelled with 100 μCi ^51Cr. Target cells were washed three times in RPMI 1640 medium, diluted to 2×10^5 cells/ml, and 50μ (10^4) of target cells added to each microtitre well containing antigen or peptide (10 μM) and preincubated for 30 min. Effector cells were resuspended in complete mdium (CM) to yield a range of effector: target (E:T) ratios. Target cells (10^4) were then incubated at different E:T ratios in a total volume of 200 μl of 10% CM for an additional 4 h. Supernatants (100 μl) were collected and counted for ^51Cr release. Spontaneous release and maximal release values were determined by incubating target cells in 10% CM alone or 0.1% Triton X-100. Percent Cytotoxicity was calculated using the formula: […]
where ER is experimental release, SR is spontaneous release and […] release. The results shown are shown in Table 4 and represent the means of triplicate determinations.

B1: antigen only: antigen (ovalbumin, OVA) given without adjuvants (protein, UniProt P01012 2-386, looked up)
Ovalbumin: GSIGAASMEFCFDVFKELKVHHANENIFYCPIAIMSALAMVYLGAKDSTRTQINKVVRFDKLPGFGDSIEAQCGTSVNVHSSLRDILNQITKPNDVYSFSLASRLYAEERYPILPEYLQCVKELYRGGLEPINFQTAADQARELINSWVESQTNGIIRNVLQPSSVDSQTAMVLVNAIVFKGLWEKAFKDEDTQAMPFRVTEQESKPVQMMYQIGLFRVASMASEKMKILELPFASGTMSMLVLLPDEVSGLEQLESIINFEKLTEWTSSNVMEERKIKVYLPRMKMEEKYNLTSVLMAMGITDVFSSSANLSGISSAESLKISQAVHAAHAEINEAGREVVGSAEAGVDAASVSEEFRADHPFLFCIKHIATNAVLFFGRCVSP
% of Cytotoxic lysis (E:T ratio 25:1): 19%
% of Cytotoxic lysis (E:T ratio 50:1): 30%
% of Cytotoxic lysis (E:T ratio 100:1): 45%
